Results as given in IntAct's records for PubMed 23756461.

B1: Cell division protein FtsZ (Escherichia coli (strain K12)), P0A9A6 (parent)
chain: MFEPMELTNDAVIKVIGVGGGGGNAVEHMVRERIEGVEFFAVNTDAQALRKTAVGQTIQIGSGITKGLGAGANPEVGRNAADEDRDALRAALEGADMVFIAAGMGGGTGTGAAPVVAEVAKDLGILTVAVVTKPFNFEGKKRMAFAEQGITELSKHVDSLITIPNDKLLKVLGRGISLLDAFGAANDVLKGAVQGIAELITRPGLMNVDFADVRTVMSEMGYAMMGSGVASGEDRAEEAAEMAISSPLLEDIDLSGARGVLVNITAGFDLRLDEFETVGNTIRAFASDNATVVIGTSLDPDMNDELRVTVVATGIGMDKRPEITLVTNKQVQQPVMDRYQQHGMAPLTQEQKPVAKVVNDNAPQTAKEPDYLDIPAFLRKQAD
B2: Cell shape-determining protein MreB (Escherichia coli (strain K12)), P0A9X4 (parent)
chain: MLKKFRGMFSNDLSIDLGTANTLIYVKGQGIVLNEPSVVAIRQDRAGSPKSVAAVGHDAKQMLGRTPGNIAAIRPMKDGVIADFFVTEKMLQHFIKQVHSNSFMRPSPRVLVCVPVGATQVERRAIRESAQGAGAREVFLIEEPMAAAIGAGLPVSEATGSMVVDIGGGTTEVAVISLNGVVYSSSVRIGGDRFDEAIINYVRRNYGSLIGEATAERIKHEIGSAYPGDEVREIEVRGRNLAEGVPRGFTLNSNEILEALQEPLTGIVSAVMVALEQCPPELASDISERGMVLTGGGALLRNLDRLLMEETGIPVVVAEDPLTCVARGGGKALEMIDMHGGDLFSEE

Variants of: B1
Settings: with mreb_ecoli mreB

Variant	effect of a mutation on the interaction
P203Q	disrupting interaction

Variants of: B2
Settings: with ftsz_ecoli ftsZ

Variant	effect of a mutation on the interaction
D285A	disrupting interaction
